The values that follow come from PMC6325061.

The target of the assay is phytochrome B (PhyB), amino acids 1-651, biotinylated (Arabidopsis thaliana) (UniProt P14713).
UniProt P14713, sequence (P14713 1-651): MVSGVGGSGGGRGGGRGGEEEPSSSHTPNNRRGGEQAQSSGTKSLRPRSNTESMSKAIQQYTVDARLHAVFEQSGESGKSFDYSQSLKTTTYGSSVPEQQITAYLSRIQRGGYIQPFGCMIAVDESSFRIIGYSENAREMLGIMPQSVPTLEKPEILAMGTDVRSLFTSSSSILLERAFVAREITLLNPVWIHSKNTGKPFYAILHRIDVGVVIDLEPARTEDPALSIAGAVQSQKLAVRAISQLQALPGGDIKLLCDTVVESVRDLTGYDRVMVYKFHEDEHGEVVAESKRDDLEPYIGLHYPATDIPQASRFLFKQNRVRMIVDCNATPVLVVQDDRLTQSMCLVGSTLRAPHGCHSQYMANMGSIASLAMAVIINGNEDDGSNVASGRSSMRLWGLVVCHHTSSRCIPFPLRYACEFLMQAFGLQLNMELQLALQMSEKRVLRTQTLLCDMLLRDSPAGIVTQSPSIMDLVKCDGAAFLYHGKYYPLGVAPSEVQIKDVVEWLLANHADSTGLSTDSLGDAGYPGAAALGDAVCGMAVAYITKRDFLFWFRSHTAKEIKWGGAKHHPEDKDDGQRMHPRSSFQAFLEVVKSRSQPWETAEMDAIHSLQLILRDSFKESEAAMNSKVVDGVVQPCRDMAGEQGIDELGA

As to “OptoIntegrin: human integrin αVβ3 with PIF^S inserted between Met180 and Lys181 of the β subunit (construct pJB005) (from UniProt Q8L5W7 1-100; P06756 31-1048) (receptor)”, the cells with paxillin clustering at the cellular periphery, HeLa stably expressing OptoIntegrin on PhyB (1–651)-coated glass, constant 660 nm light is 80 % of cells; the cells with paxillin clustering at the cellular periphery, HeLa stably expressing OptoIntegrin on PhyB (1–651)-coated glass, treated with far-red (740 nm) light was 20 % of cells; the cells with paxillin clusters at the edges, HEK-293T stably expressing OptoIntegrin on PhyB (1–651)-coated glass, constant 660 nm light was 55 % of cells; the cells with paxillin clusters, HEK-293T stably expressing OptoIntegrin on PhyB (1–651)-coated glass, 1.5 h 660 nm then switched to 740 nm for 0.5 h was 40 % of cells.
